{"source": "IntAct's records for PubMed 19037316", "parents": {"B1": {"name": "Gibberellin receptor GID1 (Oryza sativa subsp. japonica (Rice)), Q6L545 (parent)", "chain": "MAGSDEVNRNECKTVVPLHTWVLISNFKLSYNILRRADGTFERDLGEYLDRRVPANARPLEGVSSFDHIIDQSVGLEVRIYRAAAEGDAEEGAAAVTRPILEFLTDAPAAEPFPVIIFFHGGSFVHSSASSTIYDSLCRRFVKLSKGVVVSVNYRRAPEHRYPCAYDDGWTALKWVMSQPFMRSGGDAQARVFLSGDSSGGNIAHHVAVRAADEGVKVCGNILLNAMFGGTERTESERRLDGKYFVTLQDRDWYWKAYLPEDADRDHPACNPFGPNGRRLGGLPFAKSLIIVSGLDLTCDRQLAYADALREDGHHVKVVQCENATVGFYLLPNTVHYHEVMEEISDFLNANLYY", "partner": "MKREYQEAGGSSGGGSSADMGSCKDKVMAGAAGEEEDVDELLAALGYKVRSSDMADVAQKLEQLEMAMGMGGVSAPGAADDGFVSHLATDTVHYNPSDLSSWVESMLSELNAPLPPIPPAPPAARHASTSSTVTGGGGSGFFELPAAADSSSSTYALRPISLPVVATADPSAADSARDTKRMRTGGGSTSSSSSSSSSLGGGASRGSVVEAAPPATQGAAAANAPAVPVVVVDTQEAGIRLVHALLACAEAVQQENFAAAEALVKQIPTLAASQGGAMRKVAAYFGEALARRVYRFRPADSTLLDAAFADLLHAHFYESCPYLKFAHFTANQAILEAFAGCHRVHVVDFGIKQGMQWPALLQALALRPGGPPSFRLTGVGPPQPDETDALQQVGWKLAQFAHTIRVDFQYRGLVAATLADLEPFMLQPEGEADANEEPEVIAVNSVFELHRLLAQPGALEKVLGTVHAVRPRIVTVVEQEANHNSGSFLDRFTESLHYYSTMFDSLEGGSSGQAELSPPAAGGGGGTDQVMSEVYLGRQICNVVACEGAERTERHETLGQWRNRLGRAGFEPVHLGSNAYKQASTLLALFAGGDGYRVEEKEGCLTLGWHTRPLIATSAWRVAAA"}}}
{"variants_of": "B1", "details": "with slr1_orysj SLR1, Q7G7J6"}
{"variant": "MAGSDEVNRNECKTVVPAHTAVLISNFKASYNALRRADGTFERDAGEALDRRVPANARPLEGVSSFDHIIDQSVGLEVRIYRAAAEGDAEEGAAAVTRPILEFLTDAPAAEPFPVIIFFHGGSFVHSSASSTIYDSLCRRFVKLSKGVVVSVNYRRAPEHRYPCAYDDGWTALKWVMSQPFMRSGGDAQARVFLSGDSSGGNIAHHVAVRAADEGVKVCGNILLNAMFGGTERTESERRLDGKYFVTLQDRDWYWKAYLPEDADRDHPACNPFGPNGRRLGGLPFAKSLIIVSGLDLTCDRQLAYADALREDGHHVKVVQCENATVGFYLLPNTVHYHEVMEEISDFLNANLYY", "note": "[L18A;W21A;L29A;I33A;L45A;Y48A]", "effect of a mutation on the interaction": "disrupting interaction"}
